This assay concerns HLA-B*0702 transgenic mice. Nature of the assay: Vaccination of HLA-B*0702 transgenic mice (peptide + IC31), IFN-gamma ELISpot with spleen cells and CD8+ fraction. Format: in vivo, mouse. The note with it: for specific INF-γ producing T cells / HLA-B*0702 epitope in HLA-B*0702 transgenic mice (in words): peptide + IC31, whole spleen cells and CD8+ fraction. The procedure: Mouse splenocyte ELIspot assay for single cell IFN-gamma release ELISpot plates (MAHA S4510, Millipore, Germany) were rinsed with PBS (200 μl/well), coated with anti-mouse IFN-gamma mAb (clone R46A2; 100 μl/well of 5 μg/ml in 0.1 M NaHCO3, pH 9.2-9.5) and incubated overnight at 4° C. Plates were washed four times with PBS/0.1% Tween 20 and incubated with PBS/1% BSA (200 μl/well) at room temperature for 2 h to block nonspecific binding. Spleen cells from vaccinated mice were prepared and plated at 1×10^6-3×10^5 cells/well and incubated overnight at 37° C./5% CO2 either in the presence of the immunizing antigen (peptide), control peptides or with medium alone. Subsequently, plates were washed four times and incubated with biotinylated anti-mouse IFN-gamma mAb (clone AN18.17.24, 100 μl/well of 2 μg/ml in PBS/1% BSA) for 2 h at 37° C. After washing, streptavidin-peroxidase (Roche Diagnostics, Vienna, Austria) was added ( 1/5000 in PBS, 100 μl/well) and plates were incubated at room temperature for 2 additional hours. Subsequently, substrate was added to the washed plates (100 μl/well of a mixture of 10 ml 100 mM Tris pH 7.5 supplemented with 200 μl of 40 mg/ml DAB stock containing 50 μl of 80 mg/ml NiCl2 stock and 5 μl of 30% H2O2). The reaction was stopped after 20-30 minutes by washing the plates with tap water. Dried plates were evaluated with an ELISpot reader (BIOREADER 2000, BioSys, Karben, Germany).
Groups of 5 mice (HLA-A*0201-, HLA-DRB1*0401- and HLA-B*0702 transgenic mice, male, 8-14 weeks of age) were injected subcutaneous into the hind footpads with 100 μg of peptide +IC31 per mouse (50 μg per footpad). (PCT/EP01/12041, WO 02/32451 A1 and PCT/EP01/06433, WO 01/93905 A1; IC31 is a combination of the immunizer disclosed in WO 01/93905 and WO 02/32451). […]

“Also recorded” adds a separate entry of the source.

B1: MSTNPKPQRKTKRNTNRRPQDVKFPGGGQIVGGVYLLPRRGPRLGVRATRKTSERSQPRGRRQPIPK (peptide)
peptide: MSTNPKPQRKTKRNTNRRPQDVKFPGGGQIVGGVYLLPRRGPRLGVRATRKTSERSQPRGRRQPIPK
Turning to B1, the “specific INF-γ producing T cells / HLA-B*0702 epitope in HLA-B*0702 transgenic mice (in words)” value is reported as “confirmed to contain human HLA-B*0702 epitopes; also recorded: HLA-B*0702 epitopes with T-cell activating capacity”. In addition, the “Immunogenicity, peptide-specific IFN-gamma-producing cells, B*0702” value (HLA-B*0702 transgenic mice, splenocytes) is on record as “+ (immunogenic (+, less than 100 peptide-specific cells among a million splenocytes))”. Moreover, the “specific INF-γ producing T cells / HLA-B*0702 epitope in HLA-B*0702 transgenic mice (in words)” value (listed as Ipep1506) is listed as “significant interferon-gamma induction”.

For the origin of these results see patent publication US7378234B2, “Method for isolating hepatitis C virus peptides” (Intercell AG, priority 2002, dated 2008).
